Results on one molecule are retold here after patent US20190201435, “MODULATORS OF VAULT RNAS FOR USE IN THE TREATMENT OF DISEASES” (European Molecular Biology Laboratory, published 2019).

For one data set, the target named is MBP tag only (UniProt P0AEX9 P0AEX9:27-396). The data set is described as follows: EMSA; MBP tag control.
Data set [1] addresses p62 (SQSTM1, sequestosome 1) wild type (UniProt Q13501 Q13501:1-440). The data set is described as follows: EMSA; apparent Kd, TBE pH 8.3 gel; competed by cold vtRNA1-1. As to conditions: tags: MBP; (radioactive in EMSA); terminal stem loop, single-stranded loops in central domain.

B1: vtRNA1-1 (ssRNA)
RNA: GGCUGGCUUUAGCUCAGCGGUUACUUCGACAGUUCUUUAAUUGAAACAAGCAACCUGUCUGGGUUGUUCGAGACCCGCGGGCGCUCUCCAGUCCUUUU
In the case of B1, the binding result with MBP tag only was “no binding”. The Kd in data set [1] is around 60 nM.
